Assay results published in US20260102461A1 (AIKIUM, published 2026).

T1: KAAG1 disordered region peptide, PGAAAAHLPRWPPPQLAASRREA (biotin (position not given))
T1 peptide: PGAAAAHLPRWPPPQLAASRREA

T2: GMERKFMSLQPSISVSEMEPNGTFSNNNSRNCTIENFKREFFP (biotinylated, position not given)
T2 peptide: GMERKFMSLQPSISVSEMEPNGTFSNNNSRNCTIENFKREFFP

T3: TNFRSF13B disordered region peptide, LPPELRRQRSGEVENNSDNSGRYQ (biotin (position not given))
T3 peptide: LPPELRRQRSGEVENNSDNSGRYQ

T4: CYSLTR2 Epitope SISVSEMEPNGTFSNNNSRNC (N-terminally biotinylated)
T4 peptide: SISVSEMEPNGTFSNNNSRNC

T5: KCNA6 Epitope QQQEQQPASGGGGQNGQQAMS (biotin (position not given))
T5 peptide: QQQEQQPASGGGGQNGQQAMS

T6: CD40LG Epitope NKEETKKENSFEMQKGDQNPQIAAH (biotin (position not given))
T6 peptide: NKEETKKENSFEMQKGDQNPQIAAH

T7: CD74 disordered region peptide (CLIP), PPKPVSKMRMATPLLMQALPMGALP (biotin (position not given))
T7 peptide: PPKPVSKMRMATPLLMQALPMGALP

T8: CYSLTR2 N-terminal disordered region, MERKFMSLQPSISVSEMEPNGTFSNNNSRNCTIENFKREFFP (biotin (position not given))
T8 construct: also called CysLT2; CysLT2r
T8 peptide: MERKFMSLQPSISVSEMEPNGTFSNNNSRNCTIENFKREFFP

T9: Urotensin-2 receptor (UR-II-R) disordered region, MALTPESPSSFPGLAATGSSVPEPPGGPNATLNSSWASPTEPSSLEDLVATGTI (biotin (position not given))
T9 construct: also called Urotensin II R; GPCR2 (Urotensin II)
T9 peptide: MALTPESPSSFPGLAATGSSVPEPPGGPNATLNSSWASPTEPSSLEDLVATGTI


What was measured:
[1] = target: T1, KAAG1 disordered region peptide, …; experiment: modified sandwich ELISA (scaffold coated, biotinylated peptide, streptavidin-HRP fluorescence)
[2] = target: T2, GMERKFMSLQPSISVSEMEPNGTFSNNNSRNCTIENFKRE …; experiment: ELISA, scaffold coated on the plate, biotinylated peptide titrated, streptavidin-HRP fluorescence
Procedure: (§1) Binder proteins were coated on the surface of a high binding capacity 96 well plate by incubating 100 μL of protein at […] in a coating solution (10 mM Tris pH 8.8, 50 mM NaCl), overnight at 4 C. The next morning, the coating solution was aspirated out and wells were washed once with 300 μL ELISA wash buffer (lx PBS, 0.05% Tween-20) and solution was aspirated out. The wells were blocked with 200 μL of a blocking buffer (1×PBS, 0.05% Tween-20, 3% BSA) at room temperature for 1 hour. After one hour, the blocking solution was aspirated out and 100 μL of biotinylated polypeptide in a binding buffer (1×PBS, 0.05% Tween-20, 0.5% BSA) at various concentrations was added to the appropriate well and incubated for 20 minutes. Peptide solution was aspirated out after 20 minutes and wells were washed 5 times with 300 μL of ELISA wash buffer. To detect the biotinylated peptide, 100 μL of streptavidin-HRP (50 ng/mL) was added to each well and incubated for 1 hour. The wells were subsequently washed 5 times with 300 μL of ELISA wash buffer. 100 μL of QuantaBlu Fluorogenic Peroxidase substrate solution was added to each well, incubated for 30 minutes and reaction stopped by adding 100 μL of stop solution. Fluorescent signal from each well was measured using a Biotek Cytation5 plate reader by exciting the fluorophore at […] and measuring emission at 420 nm. Fluorescent signals were plotted as a function of polypeptide concentration.

[3] = target: T1, KAAG1 disordered region peptide, …; experiment: as above
Procedure: as §1

[4] = target: T3, TNFRSF13B disordered region peptide, …; experiment: as above
Procedure: as §1

[5] = target: T4, CYSLTR2 Epitope SISVSEMEPNGTFSNNNSRNC; experiment: as above
Procedure: as §1

[6] = target: T5, KCNA6 Epitope QQQEQQPASGGGGQNGQQAMS; experiment: as above
Procedure: as §1

[7] = target: T6, CD40LG Epitope NKEETKKENSFEMQKGDQNPQIAAH; experiment: as above
Procedure: as §1

[8] = target: T7, CD74 disordered region peptide (CLIP), …; experiment: modified sandwich ELISA, fluorescence grade (key: >400000, Strong binding)
[9] = target: T8, CYSLTR2 N-terminal disordered region, …; experiment: ELISA, scaffold coated on the plate, biotinylated peptide titrated, streptavidin-HRP fluorescence
Procedure: as §1

[10] = target: T9, Urotensin-2 receptor (UR-II-R) …; experiment: modified sandwich ELISA (scaffold coated, biotinylated peptide, streptavidin-HRP fluorescence)

Row | binding result [2] | binding result [3] | binding result [5] | Binder | binding result [1] | also measured
1 | – | – | – | S134 (designed binder) MVKYHHHHHHGGSENLYFQGMGDTRPRFLWQPKRECHFFNGTERVRFLDRYFYNQEESVRFDSDVGEFRAVTELGRPDAEYWNSQKDILEQARAAVDTYCRHNYGVVESFTVQRRVIKEEHVIIQAEFYLNPDQSGEFMFDFDGDEIFHVDMAKKETVWRLEEFGRFASFEAQGALANIAVDKANLEIMTKRSNYTPITN | no binding (tested: <5000 (fluorescence signal, key)) | –
2 | binds | no binding (tested: 10000 nM) | binds | S193 (designed binder) MGSKARMATGALAQAGGSGGSMIKEEHVINQAEYYLNPDQSGEFKFDFDGDEIFHVDMAKKETVWRLEEFGRFASFEAQGALAHIAVDKANLEIMTKRSNYTPMGDTRPRFLWQLKYECHFFNGTERVRLNERCIYNQEESVRFDSDVGEYRAVTELGRPDAEQWNSQKDHLEQRRAAVDTKCRHNYGVGESFTVQGGSHHHHHH | – | binding result [4]: no binding (tested: 10000 nM); binding result [6]: no binding (tested: 10000 nM); binding result [7]: no binding (tested: 10000 nM)
3 | – | – | – | S143 (designed binder) MGDTRPRFLWQLKFECHFFNGTERVRLLERCIYNQEESVRFDSDVGEYRAVTELGRPDAEYWNSQKDLLEQRRAAVDTYCRHNYGVGESFTVQRRVIKEEHVIIQAEFYLNPDQSGEFMFDFDGDEIFHVDMAKKETVWRLEEFGRFASFEAQGALANIAVDKANLEIMTKRSNYTPTINGGSHHHHHH | no binding (tested: <5000 (fluorescence signal, key)) | fluorescent signal [8]: > 400000 fluorescentsignal
4 | binds | – | binds | S189 (designed binder) single chain: MGIKEEHVINQAEYCLNPDQSGEFKFDFDGDEIFHVDMAKKETVWRLEEFGRFASFEAQGALAHIAVDCANLEIMTKRSNYTPMGDTRPRFLWQLKYECHFFNGTERVRLNERCIYNQEESVRFDSDVGEYRAVTELGRPDAEQWNSQKDHLEQRRAAVDTKCRHNYGVGESFTVQGGSHHHHHH | – | –
5 | – | – | – | S068 (designed binder) GDTRPRFLWQLKFECHFFNGTERVRLLERCIYNQEESVRFDSDVGEYRAVTELGRPDAEYWNSQKDLLEQRRAAVDTYCRHNYGVGESFTVQRRVEPKVTVYPSKTQPLQHHNLLVCSVSGFYPGSIEVRWFRNGQEEKAGVVSTGLIQNGDWTFQTLVMLETVPRSGEVYTCQVEHPSVTSPLTVEWRASGGGGSGGGGSGGGGIKEEHVIIQAEFYLNPDQSGEFMFDFDGDEIFHVDMAKKETVWRLEEFGRFASFEAQGALANIAVDKANLEIMTKRSNYTPITNVPPEVTVLTNSPVELREPNVLICFIDKFTPPVVNVTWLRNGKPVTTGVSETVFLPREDHLFRKFHYLPFLPSTEDVYDCRVEHWGLDEPLLKHWEFDAPSGGSHHHHHHLE | no binding (tested: <5000 (fluorescence signal, key)) | fluorescent signal [8]: > 400000 fluorescentsignal
6 | – | no binding (tested: 10000 nM) | – | S164 (designed binder, Computationally derived scaffold) GIKEEHSIRQNEKYNNPDQSGNFEFHLDGQPIFRVDMQKKRTKWQLEEFGRFASFEAQGALANIAVFKINLEIMTKRSNQSEAGSHSWQLNFTCEFHEGTESVRLSERSYYNQENFVSFNSDVGEYRATTELGRPMAEYVNSQKDTLEQRRAAVDTYCRHNYGVGEYFTVQRR | – | binding result [9]: no binding (tested: 10000 nM)
7 | – | no binding (tested: 10000 nM) | – | S171 (designed binder, Computationally derived scaffold) GDTRPRFLWQLKWECHFYNGTERVRLNERCNYNQEESVRFDSDVGEYRAVTELGRPDAEFSNSQKDNLEQRRAAVDTLCRHNYGVGESFTVQRRSGGGIKEEHVINQAEYYLNPDQSGEFKFDFDGDEIFHVDMAKKETVWRLEEFGRFAIIEAYGALANIAVDKANLEIMTKQSNYT | – | binding result [9]: no binding (tested: 10000 nM)
8 | binds | no binding (tested: 10000 nM) | binds | S194 (designed binder) MGIKEEHVINQAEYYLNPDQSGEFKFDFDGDEIFHVDMAKKETVWRLEEFGRFASFEAQGALAHIAVDKANLEIMTKRSNYTPMGGGSKARMATGALAQAGGSGGSGDTRPRFLWQLKYECHFFNGTERVRLNERCIYNQEESVRFDSDVGEYRAVTELGRPDAEQWNSQKDHLEQRRAAVDTKCRHNYGVGESFTVQGGSHHHHHH | – | binding result [4]: no binding (tested: 10000 nM); binding result [6]: no binding (tested: 10000 nM); binding result [7]: no binding (tested: 10000 nM)
9 | – | – | – | S077 (designed binder) KPVSKMRMATPLLMQALPMASGGGGSGGGGDTRPRFLWQLKFECHFFNGTERVRLLERCIYNQEESVRFDSDVGEYRAVTELGRPDAEYWNSQKDLLEQRRAAVDTYCRHNYGVGESFTVQRRSGGGIKEEHVIIQAEFYLNPDQSGEFMFDFDGDEIFHVDMAKKETVWRLEEFGRFASFEAQGALANIAVDKANLEIMTKRSNYTGGSHHHHHHLE | no binding (tested: <5000 (fluorescence signal, key)) | fluorescent signal [8]: > 400000 fluorescentsignal
10 | binds | – | binds | S180 (designed binder) single chain: MKEEHVIIQAEFYLNPDQSGEFMFDFDGDEIFHVDMAKKETVWRLEEFGRFASFEAQGALANIAVDKANLEIMTKRSNYTPITNTRPRFLWQPKRECHFFNGTERVRFLDRYFYNQEESVRFDSDVGEFRAVTELGRPDAEYWNSQKDILEQARAAVDTYCRHNYGVVESFTVQRRVQGGSHHHHHHLE | – | –
11 | – | binds | – | S058 (designed binder, Derived from MHC I proteins) GSHSMRYNYTSVSRPGRGEPRFISEGYVDDTQFVRFDSDAASPREEPRAPWIEQEGPEYWDRNTQIYKAQAQTDRESLRNLRGYYNQSEAGSHTLQSMYGCDVGPDGRLLRGHDQYYYDGKDYISLNEDLRSWTAADTAAQITQRKWEAAREAEQRRAYLEGECVEWLRRYLENGKDKLERADGGSHHHHHHLE | – | binding result [10]: no binding (tested: <5000 (fluorescence signal, key))
12 | – | no binding (tested: 10000 nM) | – | S065 (designed binder, Derived from MHC I proteins) GSHSMRYFYTSVSRPGRGEPRFISVGYVDDTQFVRFDSDAASPREEPRAPWIEQEGPEAWDRNTQIYKAQAQTDRESLRNLRGYYNQSEAGSHTLQSMYGCDVGPDGRLLRGHDQYAYDGKDSIALNEDLRSWTAADTAAQITQRYWEAAREAEQRRAYLEGECVEHLRRVLENGKDKLERADGGSHHHHHHLE | – | binding result [10]: no binding (tested: <5000 (fluorescence signal, key))
